What was measured:
[1] = target: EGFR (on U87MG EGFR WT glioblastoma cells) (UniProt P00533); experiment: flow cytometry; settings: U87 EGFR WT cells, 1 nM-5 µM aptamer; no/low signal on EGFR-negative LN319 cells; 2'-fluoro pyrimidines (2'F-RNA); Flow cytometry: 300,000 cells detached with 0.2 M EDTA, 30 min with Cy5-aptamer; tissue: selection buffer, 2% BSA +/- 100 µg/mL yeast tRNA block, 1 h on ice …
[2] = target: integrin α5β1 (on U87MG α5+ cells) (UniProt P08648+P05556); experiment: flow cytometry; settings: 2'-fluoro pyrimidines (2'F-RNA); Flow cytometry: 300,000 cells detached with 0.2 M EDTA, 30 min with Cy5-aptamer; tissue: selection buffer, 2% BSA +/- 100 µg/mL yeast tRNA block, 1 h on ice …; cited from earlier work
Chain of integrin α5β1 (on U87MG α5+ cells) (P08648 42-1049, chain 1 of 2): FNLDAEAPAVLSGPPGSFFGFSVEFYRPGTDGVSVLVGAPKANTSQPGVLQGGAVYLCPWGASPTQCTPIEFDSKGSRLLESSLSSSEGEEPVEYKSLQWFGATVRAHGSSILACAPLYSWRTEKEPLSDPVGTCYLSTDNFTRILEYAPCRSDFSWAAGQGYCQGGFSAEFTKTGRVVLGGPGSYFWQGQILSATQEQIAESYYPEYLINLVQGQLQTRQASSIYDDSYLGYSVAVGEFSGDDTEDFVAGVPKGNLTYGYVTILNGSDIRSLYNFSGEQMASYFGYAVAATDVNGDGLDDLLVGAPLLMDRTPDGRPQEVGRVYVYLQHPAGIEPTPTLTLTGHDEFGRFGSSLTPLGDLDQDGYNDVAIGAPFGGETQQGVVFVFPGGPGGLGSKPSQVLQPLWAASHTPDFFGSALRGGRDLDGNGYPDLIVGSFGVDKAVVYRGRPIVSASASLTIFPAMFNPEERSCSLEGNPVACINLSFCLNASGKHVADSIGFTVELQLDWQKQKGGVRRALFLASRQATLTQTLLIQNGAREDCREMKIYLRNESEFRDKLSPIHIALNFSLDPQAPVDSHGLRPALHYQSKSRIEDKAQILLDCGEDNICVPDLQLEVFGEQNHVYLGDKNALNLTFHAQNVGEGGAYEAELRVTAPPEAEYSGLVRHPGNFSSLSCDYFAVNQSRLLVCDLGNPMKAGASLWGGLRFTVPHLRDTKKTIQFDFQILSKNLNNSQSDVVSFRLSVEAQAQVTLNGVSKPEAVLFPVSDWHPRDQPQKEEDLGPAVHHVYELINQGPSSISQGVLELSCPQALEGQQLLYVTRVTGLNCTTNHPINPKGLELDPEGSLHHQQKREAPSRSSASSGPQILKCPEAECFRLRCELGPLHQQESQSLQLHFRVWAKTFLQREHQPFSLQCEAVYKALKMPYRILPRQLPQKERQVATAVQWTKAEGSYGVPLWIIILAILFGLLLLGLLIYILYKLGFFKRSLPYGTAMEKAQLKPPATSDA
Chain of integrin α5β1 (on U87MG α5+ cells) (P05556 21-798, chain 2 of 2): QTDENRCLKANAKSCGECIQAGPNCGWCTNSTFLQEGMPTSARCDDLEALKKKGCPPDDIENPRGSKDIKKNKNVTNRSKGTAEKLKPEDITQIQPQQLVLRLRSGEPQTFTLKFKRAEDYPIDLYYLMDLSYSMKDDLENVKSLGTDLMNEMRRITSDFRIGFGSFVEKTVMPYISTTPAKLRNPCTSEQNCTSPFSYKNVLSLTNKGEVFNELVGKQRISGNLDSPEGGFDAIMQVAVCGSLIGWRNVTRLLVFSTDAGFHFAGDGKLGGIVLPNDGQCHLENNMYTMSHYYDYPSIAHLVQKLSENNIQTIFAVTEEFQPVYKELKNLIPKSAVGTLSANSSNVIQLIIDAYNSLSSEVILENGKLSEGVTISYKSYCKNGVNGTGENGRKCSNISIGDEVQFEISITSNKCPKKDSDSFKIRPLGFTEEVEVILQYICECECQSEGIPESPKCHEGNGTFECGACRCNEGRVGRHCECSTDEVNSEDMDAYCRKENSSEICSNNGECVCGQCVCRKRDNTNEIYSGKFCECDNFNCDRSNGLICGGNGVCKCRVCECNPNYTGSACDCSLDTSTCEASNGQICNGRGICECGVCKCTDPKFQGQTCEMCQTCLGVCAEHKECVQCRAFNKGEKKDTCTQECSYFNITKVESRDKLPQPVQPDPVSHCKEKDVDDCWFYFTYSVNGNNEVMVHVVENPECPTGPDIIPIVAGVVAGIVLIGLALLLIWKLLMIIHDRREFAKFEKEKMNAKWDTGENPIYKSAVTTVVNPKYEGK

| Sequence | Kd [1] | Kd [2] |
| --- | --- | --- |
| GGACGGAUUUAAUCGCCGUAGAAAAGCAUGUCAAAGCCGGAACCGUCC [E07-Cy5] | 209 nM | – |
| GGUUACCAGCCUUCACUGCGGACGGACAGAGAGUGCAACCUGCCGUGCCGCACCACGGUCGGUCACAC [H02-Cy5] | – | 278 nM |

Reference: PMC9609998
